Reference: patent publication US9624285B2, “Methods of treating diabetes and compositions capable of same” (Ramot a Tel-Aviv University Ltd., priority 2010, dated 2017)
No end group written: not given here.

B1: hIAPP oligomers: isolated stable oligomers (dimers, trimers, ~90 kDa) of synthetic human islet amyloid polypeptide prepared with HFIP, NaOH and SDS (peptide)
peptide: MGILKLQVFLIVLSVALNHLKATPIESHQVEKRKCNTATCATQRLANFLVHSSNNFGAILSSTNVGSNTYGKRNAVEVLKREPLNYLPL

Legend:
Rin-m cells [1] = experiment: Confocal microscopy of cells incubated with labelled oligomers; format: cell-based; conditions: 5 μM
Method: Rin-m cells were cultured on glass cover slips located in 24-well micro plates, then incubated for different periods with hIAPP-Hiytelfluor 488 (Anaspec, USA) oligomers (5 μM) at 37° C., as described in the cell cytotoxicity experiments section. After incubation cells were washed with PBS buffer and fixed with 4% paraformaldehyde in PBS for 5 minutes and washed with PBS buffer. Cells were treated with 1% Triton x-100 in PBS and stained with 50 μg/ml Phalloidin Tetramethyl-rhodamine B isothiocyanate (Sigma-Aldrich) in PBS 40 minutes in room temperature, followed by extensive wash with PBS buffer. The cells were imaged using LSM 510 confocal laser scanning microscope (Carl Zeiss Jena, Germany).

Rin-m cells [2] = experiment: MTT reduction assay; format: cell-based
Method: Rin-m cells (2×10^5 cells/ml) were cultured in 96-well micro plates (100 μl/well) and incubated overnight at 37° C. Human oligomers and rat IAPP was added to each well at various concentrations. Each measurement was repeated four times. Following incubation for 6 hours at 37° C., cell viability was evaluated using 3-(4,5-dimethylthiazolyl-2)-2,5-diphenyltetrazolium bromide (MTT) assay. Briefly, 20 μL of 5 mg/ml MTT dissolved in PBS was added to each well. After 4 hours incubation at 37° C., 100 μl of extraction buffer [20% SDS dissolved in a solution of 50% dimethylformamide and 50% DDW (pH 4.7)] was added to each well, and the plates were incubated again overnight at 37° C. Finally, color intensity was measured using an ELISA plate reader at 570 nm.

[3] = Oligomer stability assay (PAGE under non reducing conditions); format: physicochemical; conditions: dialyzed against PBS buffer, incubated at 37° C.
Method: FIGS. 1A-E are graphs and photographs illustrating characterization of human IAPP oligomers. (FIG. 1A) PAGE analysis under non-reducing conditions of human IAPP oligomers and a negative control of non amyloidogenic rat IAPP (I-monomer, II-dimer and III-trimer). (FIG. 1B) Oligomer stability assay, hIAPP oligomers were dialyzed against PBS buffer and incubated at 37° C. Oligomer association/disassociation was monitored by PAGE analysis under non reducing conditions. (FIG. 1C) Size exclusion chromatography (Superdex 75 10/300, PBS buffer pH 7.4) of hIAPP oligomers; I-monomer, […], III-trimer and IV-90 kDa oligomer. (FIG. 1D) Transmittance electron microscopy (TEM) and atomic force microscopy (AFM) images of the ˜90 kDa oligomers, TEM scale bar 100 nm, AFM scale bar 600 nm. (FIG. 1E) CD spectroscopy of hIAPP and rIAPP, protein concentration of 5 μM. Each spectrum represents the average of three measurements.
IAPP synthetic peptide (Human; H-7905, Bachem, Bubendorf, Switzerland. Rat; 74-5-10A, American peptide, California, U.S.A) was suspended in 100% 1,1,1,3,3,3 hexafluoro-2-propanol (HFIP) at 1 mg/ml and incubated for complete solubilization under shaking (100 rpm) at 37° C. for 2 hours. […] IAPP self-assembly products were analyzed by 15% Tris-tricine PAGE and stained with Imperial protein stain. […]

Rin-m cells [4] = experiment: Flow cytometry cell sorting (FACS) assay, Annexin V-FITC apoptosis detection; format: cell-based; conditions: 0.5 μM, 1 μM and 5 μM
Method: Rin-m cells (5×10^5 cells/ml) were cultured for 4 hours at 37° C. incubated with human IAPP oligomers (final concentration of 0.5 μM, 1 μM and 5 μM). Samples were washed with PBS buffer and resuspended with 500 μl binding buffer. 5 μl of Annexin V-FITC and 10 μl of propidium iodide (Annexin V-FITC apoptosis detection kit; MBL) was added to the samples. After 10 minutes of incubation in the dark at RT, samples were analyzed using the FACS Sort (Beckton Dickinson) and results analyzed using the CellQuest program (Beckton Dickinson). Each measurement was repeated three times. FL1-H represents the fluorescence of V-FITC and FL2-H represents the fluorescence of […].

[5] = pancreatic RIN-m cells, 100 nM-10 μM, 6 hours

Molecule | cell morphology (confocal) (Rin-m cells [1]; after eight hours) | cell numbers (confocal) (Rin-m cells [1]; after four hours, insertion of oligomers to the cytoplasm) | interaction of oligomers with cells (confocal) (Rin-m cells [1]; after one hour) | cell viability (MTT reduction) (Rin-m cells [2]; [5]) | oligomer stability (no disassembly or further polymerization to fibrils) [3] | oligomer stability (no disassembly or further polymerization to fibrils) ([3]; listed as oligomeric structures) | correlation of oligomer concentration with percentage of apoptotic cells (Rin-m cells [4]) | cell state (apoptosis) by FACS (Rin-m cells [4]; 4 hours) | cell viability (MTT reduction) (Rin-m cells [2]; pancreatic cells, 5 μM oligomers)
hIAPP-Hiytelfluor 488 oligomers: oligomers of fluorescently labelled hIAPP-Hiytelfluor 488 (Anaspec) (KCNTATCATQRLANFLVHSSNNFGAILSSTNVGSNTY; not fully specified (C-terminus, bridges); cysteine pairing not given here; also: HiLyte Fluor 488 label, position not given here, oligomers; UniProt P10997 34-70, looked up) | Dramatic cell morphology changes | massive decline in cell numbers | intensive localization of the oligomers to the cell membrane | – | – | – | – | – | –
rIAPP: non amyloidogenic rat IAPP synthetic peptide, negative control, treated in the same manner [reference compound] | – | – | – | showed no such effect | – | – | – | – | –
B1 | – | – | – | dose dependent decrease in cell viability | up to 7 days | stable for up to seven days | clear and strong correlation | mostly in the early and late apoptotic phase | reduced dramatically
